# In IntAct's records for PubMed 23932588:
# B1: Tyrosine-protein phosphatase non-receptor type 5 (Mus musculus), P54830-1 (parent)
# chain: MCCSERLLGLPQPVEMEAPDEAEGLPSKQKEMPPPPPPSPPSEPAQKLPPQGAGSHSLTVRSSLCLFAASQFLLACGVLWLSGHGHSWLQNTTDLISSSLTVLNHLGPVAWLGSGTWGIPSLLLVSLTVSLVIVTTLVWHLLKAPPEPPAPLPPEDRRQSVSRQPSFTYSEWMEEKVEDDFLDLDAVPETPVFDCVMDIKPETDPASLTVKSMGLQERRGSNVSLTLDMCTPGCNEEGFGYLVSPREESAHEYLLSASRVLRAEELHEKALDPFLLQAEFFEIPMNFVDPKEYDIPGLVRKNRYKTILPNPHSRVRLTSPDPEDPLSSYINANYIRGYSGEEKVYIATQGPIVSTVADFWRMVWQERTPIIVMITNIEEMNEKCTEYWPEEQVVHDGVEITVQKVIHTEDYRLRLISLRRGTEERSLKHYWFTSWPDQKTPDRAPPLLHLVREVEEAAQQEGPHCSPIIVHCSAGIGRTGCFIATSICCQQLRREGVVDILKTTCQLRQDRGGMIQTCEQYQFVHHAMSLYEKQLSLQSSE
# Variants of: B1
# Details: with MAPK14, Q16539-1
# Chain of MAPK14, Q16539-1 (Q16539 whole entry): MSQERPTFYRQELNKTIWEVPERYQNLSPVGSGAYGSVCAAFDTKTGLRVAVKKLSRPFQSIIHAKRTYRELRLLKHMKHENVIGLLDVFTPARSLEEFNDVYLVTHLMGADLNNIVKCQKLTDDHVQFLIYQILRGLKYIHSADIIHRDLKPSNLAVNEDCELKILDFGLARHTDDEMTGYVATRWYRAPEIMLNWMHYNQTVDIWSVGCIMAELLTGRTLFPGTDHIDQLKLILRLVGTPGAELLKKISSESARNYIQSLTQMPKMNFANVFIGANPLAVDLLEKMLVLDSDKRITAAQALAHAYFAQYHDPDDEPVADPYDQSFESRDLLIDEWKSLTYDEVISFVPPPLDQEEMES
row,Variant,effect of a mutation on the interaction
1,F281A;I307A,decreasing interaction strength
2,F274A;F281A,decreasing interaction strength
